Source: the supplement of paper PMC10567573

B1: RTP4 (parent)
chain: AFGWFRCSSCQRSWASAQVQILCH

Variants of: B1
Assay: protein stability index of a GFP-peptide fusion (GPS, HEK-293T) (PSI 1-6); higher = more stable
Conditions: c terminus: a fixed tail appended
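Further: lentivirally expressed fusions sorted by FACS into six bins by GFP to DsRed ratio, PSI derived from sequencing read proportions per bin multiplied by bin number.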

Variant | protein stability index
A1L | 2.49
A1M | 2.42
A1R | 3.15
A1S | 4.21
A1T | 2.12
A1V | 2.11
A1W | 2.44
A1Y | 2.87
F2D | 2.56
F2P | 2.67
F2T | 2.73
G3A | 2.75
G3D | 1.45
G3H | 1.14
G3N | 2.75
G3P | 3.37
W4C | 2.77
W4E | 1.91
W4G | 3.48
W4H | 2.49
W4L | 1.67
W4P | 3.99
W4T | 1.47
W4Y | 2.37

Variant | protein stability index
F5C | 1.77
F5G | 2.57
F5I | 2.35
F5K | 3.49
F5Q | 2.99
F5Y | 4
R6A | 2.65
R6C | 2.07
R6F | 1.93
R6H | 2.77
R6I | 3.19
R6L | 3.45
R6N | 1.77
R6Q | 2.12
R6Y | 2.65
C7D | 3.61
C7E | 2.89
C7H | 2.97
C7I | 2.4
C7K | 3.9
C7L | 4.23
C7S | 3.67
C7V | 3.3
C7Y | 2.67

Variant | protein stability index
S8D | 3.96
S8E | 1.83
S8H | 2.39
S8P | 2.27
S8V | 3.2
S9C | 2.09
S9F | 2.75
S9G | 1.9
S9H | 3.52
S9I | 2.15
S9K | 1.72
S9L | 2.59
S9M | 3.56
S9N | 2.39
S9P | 2.5
S9Q | 2.35
S9T | 4.83
S9V | 1.64
S9Y | 3.01
C10F | 3.06
C10G | 3.33
C10L | 2.7
C10N | 3.16
C10R | 2.77

Variant | protein stability index
Q11D | 2.83
Q11E | 1.88
Q11G | 2.23
Q11H | 2.43
Q11I | 3.81
Q11K | 3.01
Q11N | 2.49
Q11P | 2.27
Q11R | 2.89
Q11T | 3.55
Q11V | 4.38
Q11W | 1.81
Q11Y | 4.15
R12C | 3.76
R12D | 2.1
R12I | 2.33
R12K | 1.9
R12L | 1.65
R12M | 2.86
R12N | 1.91
R12P | 3.2
R12Q | 3.2
R12S | 2
R12T | 3.84

Variant | protein stability index
R12W | 2.71
R12Y | 2.83
S13D | 2.27
S13F | 1.54
S13H | 2.36
S13I | 1.36
S13L | 1.69
S13M | 2.09
S13N | 3.74
S13P | 2.41
S13Q | 2.43
S13R | 2.27
S13V | 3.12
S13W | 3.02
S13Y | 3.16
W14A | 1.8
W14C | 3.08
W14F | 3.1
W14H | 1.95
W14I | 2.21
W14K | 2.54
W14L | 1.57
W14M | 1.1
W14N | 2.96

Variant | protein stability index
W14P | 3.31
W14R | 1.48
W14S | 2.45
W14T | 3.22
W14V | 1.36
W14Y | 2.11
A15C | 2.98
A15D | 1.24
A15E | 1.6
A15F | 2
A15H | 1.83
A15I | 1.53
A15K | 2.12
A15N | 4.46
A15S | 2.04
A15V | 1.07
A15W | 2.79
A15Y | 2.87
S16A | 2.73
S16D | 2.46
S16E | 3.11
S16F | 2.12
S16G | 1.75
S16H | 3.4

Variant | protein stability index
S16I | 2.64
S16K | 2.9
S16N | 2.77
S16R | 2.79
S16T | 1.95
S16W | 1.86
S16Y | 1.78
A17C | 2.38
A17D | 3.07
A17E | 2.93
A17H | 2.31
A17I | 3.06
A17K | 3.13
A17M | 1.86
A17N | 1.65
A17P | 2.21
A17V | 2.19
A17W | 2.94
A17Y | 2.43
Q18A | 2.37
Q18C | 3.51
Q18D | 2.22
Q18H | 2.68
